Reference: patent US20180155451A1 (published 2018)

Each binder was assayed against T1, FcγRIIa H (human, UniProt P12318 34-217) (assay: SPR Biacore, relative binding).
T1 construct: extracellular domain; also called FcgRIIa H type; 2aH; not shown: His tag at the C terminus
T1 sequence (looked up): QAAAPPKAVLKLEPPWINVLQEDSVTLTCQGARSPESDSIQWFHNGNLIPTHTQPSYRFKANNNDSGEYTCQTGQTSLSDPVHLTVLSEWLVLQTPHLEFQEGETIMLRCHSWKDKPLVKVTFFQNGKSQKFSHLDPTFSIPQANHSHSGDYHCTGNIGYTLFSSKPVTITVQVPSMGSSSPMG

Binder	Ho/Con_2aH
GpH7-B3 variant I332_02A/GpL16-k0 (antibody, human IgG1, kappa, also called Ho Ab I332_02A) heavy: not shown light: DIVMTQSPLSLPVTPGEPASISCQASESLVHSNRNTYLHWYLQKPGQSPQLLIYKVSNRFSGVPDRFSGSGSGTDFTLKISRVEAEDVGVYYCSQNTHVPPTFGQGTKVEIERTVAAPSVFIFPPSDEQLKSGTASVVCLLNNFYPREAKVQWKVDNALQSGNSQESVTEQDSKDSTYSLSSTLTLSKADYEKHKVYACEVTHQGLSSPVTKSFNRGEC	119 % of GpH7-B3/GpL16-k0 (=100)
GpH7-B3 variant A330_12R/GpL16-k0 (antibody, human IgG1, kappa, also called Ho Ab A330_12R) heavy: not shown light: DIVMTQSPLSLPVTPGEPASISCQASESLVHSNRNTYLHWYLQKPGQSPQLLIYKVSNRFSGVPDRFSGSGSGTDFTLKISRVEAEDVGVYYCSQNTHVPPTFGQGTKVEIERTVAAPSVFIFPPSDEQLKSGTASVVCLLNNFYPREAKVQWKVDNALQSGNSQESVTEQDSKDSTYSLSSTLTLSKADYEKHKVYACEVTHQGLSSPVTKSFNRGEC	110 % of GpH7-B3/GpL16-k0 (=100)
GpH7-B3 variant I332_03V/GpL16-k0 (antibody, human IgG1, kappa, also called Ho Ab I332_03V) heavy: not shown light: DIVMTQSPLSLPVTPGEPASISCQASESLVHSNRNTYLHWYLQKPGQSPQLLIYKVSNRFSGVPDRFSGSGSGTDFTLKISRVEAEDVGVYYCSQNTHVPPTFGQGTKVEIERTVAAPSVFIFPPSDEQLKSGTASVVCLLNNFYPREAKVQWKVDNALQSGNSQESVTEQDSKDSTYSLSSTLTLSKADYEKHKVYACEVTHQGLSSPVTKSFNRGEC	106 % of GpH7-B3/GpL16-k0 (=100)
GpH7-B3 variant H268_10E/GpL16-k0 (antibody, human IgG1, kappa, also called Ho Ab H268_10E) heavy: not shown light: DIVMTQSPLSLPVTPGEPASISCQASESLVHSNRNTYLHWYLQKPGQSPQLLIYKVSNRFSGVPDRFSGSGSGTDFTLKISRVEAEDVGVYYCSQNTHVPPTFGQGTKVEIERTVAAPSVFIFPPSDEQLKSGTASVVCLLNNFYPREAKVQWKVDNALQSGNSQESVTEQDSKDSTYSLSSTLTLSKADYEKHKVYACEVTHQGLSSPVTKSFNRGEC	126 % of GpH7-B3/GpL16-k0 (=100)
GpH7-B3 variant G236_03V/GpL16-k0 (antibody, human IgG1, kappa, also called Ho Ab G236_03V) heavy: not shown light: DIVMTQSPLSLPVTPGEPASISCQASESLVHSNRNTYLHWYLQKPGQSPQLLIYKVSNRFSGVPDRFSGSGSGTDFTLKISRVEAEDVGVYYCSQNTHVPPTFGQGTKVEIERTVAAPSVFIFPPSDEQLKSGTASVVCLLNNFYPREAKVQWKVDNALQSGNSQESVTEQDSKDSTYSLSSTLTLSKADYEKHKVYACEVTHQGLSSPVTKSFNRGEC	111 % of GpH7-B3/GpL16-k0 (=100)
GpH7-B3 variant H268_18N/GpL16-k0 (antibody, human IgG1, kappa, also called Ho Ab H268_18N) heavy: not shown light: DIVMTQSPLSLPVTPGEPASISCQASESLVHSNRNTYLHWYLQKPGQSPQLLIYKVSNRFSGVPDRFSGSGSGTDFTLKISRVEAEDVGVYYCSQNTHVPPTFGQGTKVEIERTVAAPSVFIFPPSDEQLKSGTASVVCLLNNFYPREAKVQWKVDNALQSGNSQESVTEQDSKDSTYSLSSTLTLSKADYEKHKVYACEVTHQGLSSPVTKSFNRGEC	110 % of GpH7-B3/GpL16-k0 (=100)
GpH7-B3 variant H268_13S/GpL16-k0 (antibody, human IgG1, kappa, also called Ho Ab H268_13S) heavy: not shown light: DIVMTQSPLSLPVTPGEPASISCQASESLVHSNRNTYLHWYLQKPGQSPQLLIYKVSNRFSGVPDRFSGSGSGTDFTLKISRVEAEDVGVYYCSQNTHVPPTFGQGTKVEIERTVAAPSVFIFPPSDEQLKSGTASVVCLLNNFYPREAKVQWKVDNALQSGNSQESVTEQDSKDSTYSLSSTLTLSKADYEKHKVYACEVTHQGLSSPVTKSFNRGEC	114 % of GpH7-B3/GpL16-k0 (=100)
GpH7-B3 variant I332_04F/GpL16-k0 (antibody, human IgG1, kappa, also called Ho Ab I332_04F) heavy: not shown light: DIVMTQSPLSLPVTPGEPASISCQASESLVHSNRNTYLHWYLQKPGQSPQLLIYKVSNRFSGVPDRFSGSGSGTDFTLKISRVEAEDVGVYYCSQNTHVPPTFGQGTKVEIERTVAAPSVFIFPPSDEQLKSGTASVVCLLNNFYPREAKVQWKVDNALQSGNSQESVTEQDSKDSTYSLSSTLTLSKADYEKHKVYACEVTHQGLSSPVTKSFNRGEC	111 % of GpH7-B3/GpL16-k0 (=100)
GpH7-B3 variant G236_10E/GpL16-k0 (antibody, human IgG1, kappa, also called Ho Ab G236_10E) heavy: not shown light: DIVMTQSPLSLPVTPGEPASISCQASESLVHSNRNTYLHWYLQKPGQSPQLLIYKVSNRFSGVPDRFSGSGSGTDFTLKISRVEAEDVGVYYCSQNTHVPPTFGQGTKVEIERTVAAPSVFIFPPSDEQLKSGTASVVCLLNNFYPREAKVQWKVDNALQSGNSQESVTEQDSKDSTYSLSSTLTLSKADYEKHKVYACEVTHQGLSSPVTKSFNRGEC	122 % of GpH7-B3/GpL16-k0 (=100)
GpH7-B3 variant H268_09D/GpL16-k0 (antibody, human IgG1, kappa, also called Ho Ab H268_09D) heavy: not shown light: DIVMTQSPLSLPVTPGEPASISCQASESLVHSNRNTYLHWYLQKPGQSPQLLIYKVSNRFSGVPDRFSGSGSGTDFTLKISRVEAEDVGVYYCSQNTHVPPTFGQGTKVEIERTVAAPSVFIFPPSDEQLKSGTASVVCLLNNFYPREAKVQWKVDNALQSGNSQESVTEQDSKDSTYSLSSTLTLSKADYEKHKVYACEVTHQGLSSPVTKSFNRGEC	136 % of GpH7-B3/GpL16-k0 (=100)
GpH7-B3 variant G236_07I/GpL16-k0 (antibody, human IgG1, kappa, also called Ho Ab G236_07I) heavy: not shown light: DIVMTQSPLSLPVTPGEPASISCQASESLVHSNRNTYLHWYLQKPGQSPQLLIYKVSNRFSGVPDRFSGSGSGTDFTLKISRVEAEDVGVYYCSQNTHVPPTFGQGTKVEIERTVAAPSVFIFPPSDEQLKSGTASVVCLLNNFYPREAKVQWKVDNALQSGNSQESVTEQDSKDSTYSLSSTLTLSKADYEKHKVYACEVTHQGLSSPVTKSFNRGEC	101 % of GpH7-B3/GpL16-k0 (=100)
GpH7-B3 variant I332_06M/GpL16-k0 (antibody, human IgG1, kappa, also called Ho Ab I332_06M) heavy: not shown light: DIVMTQSPLSLPVTPGEPASISCQASESLVHSNRNTYLHWYLQKPGQSPQLLIYKVSNRFSGVPDRFSGSGSGTDFTLKISRVEAEDVGVYYCSQNTHVPPTFGQGTKVEIERTVAAPSVFIFPPSDEQLKSGTASVVCLLNNFYPREAKVQWKVDNALQSGNSQESVTEQDSKDSTYSLSSTLTLSKADYEKHKVYACEVTHQGLSSPVTKSFNRGEC	114 % of GpH7-B3/GpL16-k0 (=100)

The next lines start with the values.

Ho/Con_2aH	Binder
126 % of GpH7-B3/GpL16-k0 (=100)	GpH7-B3 variant I332_15Y/GpL16-k0 (antibody, human IgG1, kappa, also called Ho Ab I332_15Y) heavy: not shown light: DIVMTQSPLSLPVTPGEPASISCQASESLVHSNRNTYLHWYLQKPGQSPQLLIYKVSNRFSGVPDRFSGSGSGTDFTLKISRVEAEDVGVYYCSQNTHVPPTFGQGTKVEIERTVAAPSVFIFPPSDEQLKSGTASVVCLLNNFYPREAKVQWKVDNALQSGNSQESVTEQDSKDSTYSLSSTLTLSKADYEKHKVYACEVTHQGLSSPVTKSFNRGEC
114 % of GpH7-B3/GpL16-k0 (=100)	GpH7-B3 variant I332_19Q/GpL16-k0 (antibody, human IgG1, kappa, also called Ho Ab I332_19Q) heavy: not shown light: DIVMTQSPLSLPVTPGEPASISCQASESLVHSNRNTYLHWYLQKPGQSPQLLIYKVSNRFSGVPDRFSGSGSGTDFTLKISRVEAEDVGVYYCSQNTHVPPTFGQGTKVEIERTVAAPSVFIFPPSDEQLKSGTASVVCLLNNFYPREAKVQWKVDNALQSGNSQESVTEQDSKDSTYSLSSTLTLSKADYEKHKVYACEVTHQGLSSPVTKSFNRGEC
121 % of GpH7-B3/GpL16-k0 (=100)	GpH7-B3 variant I332_13S/GpL16-k0 (antibody, human IgG1, kappa, also called Ho Ab I332_13S) heavy: not shown light: DIVMTQSPLSLPVTPGEPASISCQASESLVHSNRNTYLHWYLQKPGQSPQLLIYKVSNRFSGVPDRFSGSGSGTDFTLKISRVEAEDVGVYYCSQNTHVPPTFGQGTKVEIERTVAAPSVFIFPPSDEQLKSGTASVVCLLNNFYPREAKVQWKVDNALQSGNSQESVTEQDSKDSTYSLSSTLTLSKADYEKHKVYACEVTHQGLSSPVTKSFNRGEC
117 % of GpH7-B3/GpL16-k0 (=100)	GpH7-B3 variant I332_10E/GpL16-k0 (antibody, human IgG1, kappa, also called Ho Ab I332_10E) heavy: not shown light: DIVMTQSPLSLPVTPGEPASISCQASESLVHSNRNTYLHWYLQKPGQSPQLLIYKVSNRFSGVPDRFSGSGSGTDFTLKISRVEAEDVGVYYCSQNTHVPPTFGQGTKVEIERTVAAPSVFIFPPSDEQLKSGTASVVCLLNNFYPREAKVQWKVDNALQSGNSQESVTEQDSKDSTYSLSSTLTLSKADYEKHKVYACEVTHQGLSSPVTKSFNRGEC
118 % of GpH7-B3/GpL16-k0 (=100)	GpH7-B3 variant I332_18N/GpL16-k0 (antibody, human IgG1, kappa, also called Ho Ab I332_18N) heavy: not shown light: DIVMTQSPLSLPVTPGEPASISCQASESLVHSNRNTYLHWYLQKPGQSPQLLIYKVSNRFSGVPDRFSGSGSGTDFTLKISRVEAEDVGVYYCSQNTHVPPTFGQGTKVEIERTVAAPSVFIFPPSDEQLKSGTASVVCLLNNFYPREAKVQWKVDNALQSGNSQESVTEQDSKDSTYSLSSTLTLSKADYEKHKVYACEVTHQGLSSPVTKSFNRGEC
130 % of GpH7-B3/GpL16-k0 (=100)	GpH7-B3 variant I332_09D/GpL16-k0 (antibody, human IgG1, kappa, also called Ho Ab I332_09D) heavy: not shown light: DIVMTQSPLSLPVTPGEPASISCQASESLVHSNRNTYLHWYLQKPGQSPQLLIYKVSNRFSGVPDRFSGSGSGTDFTLKISRVEAEDVGVYYCSQNTHVPPTFGQGTKVEIERTVAAPSVFIFPPSDEQLKSGTASVVCLLNNFYPREAKVQWKVDNALQSGNSQESVTEQDSKDSTYSLSSTLTLSKADYEKHKVYACEVTHQGLSSPVTKSFNRGEC
100 % of GpH7-B3/GpL16-k0 (=100)	GpH7-B3 variant I336_06M/GpL16-k0 (antibody, human IgG1, kappa, also called Ho Ab I336_06M) heavy: not shown light: DIVMTQSPLSLPVTPGEPASISCQASESLVHSNRNTYLHWYLQKPGQSPQLLIYKVSNRFSGVPDRFSGSGSGTDFTLKISRVEAEDVGVYYCSQNTHVPPTFGQGTKVEIERTVAAPSVFIFPPSDEQLKSGTASVVCLLNNFYPREAKVQWKVDNALQSGNSQESVTEQDSKDSTYSLSSTLTLSKADYEKHKVYACEVTHQGLSSPVTKSFNRGEC
125 % of GpH7-B3/GpL16-k0 (=100)	GpH7-B3 variant I332_14T/GpL16-k0 (antibody, human IgG1, kappa, also called Ho Ab I332_14T) heavy: not shown light: DIVMTQSPLSLPVTPGEPASISCQASESLVHSNRNTYLHWYLQKPGQSPQLLIYKVSNRFSGVPDRFSGSGSGTDFTLKISRVEAEDVGVYYCSQNTHVPPTFGQGTKVEIERTVAAPSVFIFPPSDEQLKSGTASVVCLLNNFYPREAKVQWKVDNALQSGNSQESVTEQDSKDSTYSLSSTLTLSKADYEKHKVYACEVTHQGLSSPVTKSFNRGEC
119 % of GpH7-B3/GpL16-k0 (=100)	GpH7-B3 variant I332_16H/GpL16-k0 (antibody, human IgG1, kappa, also called Ho Ab I332_16H) heavy: not shown light: DIVMTQSPLSLPVTPGEPASISCQASESLVHSNRNTYLHWYLQKPGQSPQLLIYKVSNRFSGVPDRFSGSGSGTDFTLKISRVEAEDVGVYYCSQNTHVPPTFGQGTKVEIERTVAAPSVFIFPPSDEQLKSGTASVVCLLNNFYPREAKVQWKVDNALQSGNSQESVTEQDSKDSTYSLSSTLTLSKADYEKHKVYACEVTHQGLSSPVTKSFNRGEC
